In the supplement of paper PMC10126150:
± gives the standard deviation of the averaged measurements.

Test system: ATP
Assay: switch fluorescence ratio, 500 uM ATP over buffer (Cy3 cluster intensity, sum of 5 cycles each) (fold (ratio)); higher = stronger signal-on switching upon ATP binding; sequences stand for … in TCGTCGGCAGCGTCAGATGTGTATAAGAGACAGTTTTTTTTTTTTTTTTTTTTTTTTT…TC
Conditions: aptamer strand: ATP DNA aptamer (quencher-CACCTGGGGGAGTATTGCGGAGGAAGG + anchor), 100 nM annealed; ATP concentration: 500 uM
Method in brief: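 Clusters carrying Cy3-labelled switching strands on a modified Illumina MiSeq flow-cell were annealed to 100 nM quencher-labelled ATP aptamer and imaged in selection buffer. They were imaged again after 15 min with 500 uM ATP at 22 °C, over five buffer/ATP cycles with NaOH stripping and re-annealing in between. For each cluster, the fluorescence ratio is the summed Cy3 intensity of the target cycles divided by that of the buffer cycles, averaged per switch-domain sequence. Clusters outside 100-1000 RFU were left out.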
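Also: ATP exposure 15 min at 22 °C before imaging.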

TTATTGTGCG and TTATTTATCG are within error of each other in switch fluorescence ratio: 1.03 ± 0.034 for the first, 0.987 ± 0.026 for the second.

TTATTTATTC and TTATTTGGTC are within error of each other in switch fluorescence ratio: 1.03 ± 0.037 for the first, 1 ± 0.056 for the second.

TTATTTGTTA and TTATTTTGGG are within error of each other in switch fluorescence ratio: 1.01 ± 0.041 for the first, 0.99 ± 0.037 for the second.

TTCAAAATCT and TTCAAAGACT are within error of each other in switch fluorescence ratio: 1.04 ± 0.019 for the first, 1.02 ± 0.049 for the second.

TTCAAATCCC and TTCAACTGGT are within error of each other in switch fluorescence ratio: 1.005 ± 0.0094 for the first, 0.996 ± 0.022 for the second.

Going from TTCAAGCAAG to TTCAAGGAGT, the switch fluorescence ratio falls from 1.15 ± 0.015 to 1.028 ± 0.0017.

TTCAAGTGTA and TTCAATCTGT are within error of each other in switch fluorescence ratio: 1.01 ± 0.022 for the first, 0.968 ± 0.064 for the second.

First: TTCAATGTTT
Second: TTCACAACCT
The switch fluorescence ratio of the first is lower: 0.978 ± 0.049 for the first, 1.77 ± 0.36 for the second.

First: TTCACACTA
Second: TTCACCCGTC
The switch fluorescence ratio of the first is higher: 1.07 ± 0.044 for the first, 0.971 ± 0.023 for the second.

First: TTCACCGGCA
Second: TTCACGCTAG
The switch fluorescence ratio of the first is higher: 1.079 ± 0.0089 for the first, 1.0378 ± 0.00056 for the second.

TTCACGGGTC and TTCACTCTTT are within error of each other in switch fluorescence ratio: 1.06 ± 0.06 for the first, 1.017 ± 0.0099 for the second.

First: TTCAGCGATG
Second: TTCAGCTTGG
The switch fluorescence ratio of the first is higher: 1.024 ± 0.0081 for the first, 0.99 ± 0.015 for the second.

TTCAGGATGG and TTCAGGGCGC are within error of each other in switch fluorescence ratio: 1.02 ± 0.017 for the first, 1.03 ± 0.053 for the second.

First: TTCAGGGCTT
Second: TTCAGGGGCA
The switch fluorescence ratio of the first is lower: 0.986 ± 0.036 for the first, 1.08 ± 0.033 for the second.

TTCAGGGGGC and TTCAGGGGTA are the same in switch fluorescence ratio: 1.02 ± 0.014 for the first, 1.02 ± 0.033 for the second.

TTCAGGGGTT and TTCAGGTATG are within error of each other in switch fluorescence ratio: 1.04 ± 0.068 for the first, 1.01 ± 0.028 for the second.

TTCAGGTGGC and TTCAGGTGTG are within error of each other in switch fluorescence ratio: 1.18 ± 0.17 for the first, 1.142 ± 0.0073 for the second.

TTCAGGTTTT and TTCAGTATCA are within error of each other in switch fluorescence ratio: 0.99 ± 0.054 for the first, 1.06 ± 0.061 for the second.

TTCAGTCGAG and TTCAGTTTCG are within error of each other in switch fluorescence ratio: 0.979 ± 0.02 for the first, 1.01 ± 0.027 for the second.

TTCATAAATT and TTCATAGGCA are within error of each other in switch fluorescence ratio: 1.02 ± 0.023 for the first, 1 ± 0.039 for the second.

TTCATAGTAC and TTCATCGGGT are within error of each other in switch fluorescence ratio: 1.2 ± 0.22 for the first, 1.01 ± 0.014 for the second.

TTCATGAATT and TTCATGATTG are within error of each other in switch fluorescence ratio: 0.9956 ± 0.0056 for the first, 0.999 ± 0.011 for the second.

TTCATGGACA and TTCATGGTGG are within error of each other in switch fluorescence ratio: 0.99 ± 0.014 for the first, 1.01 ± 0.052 for the second.

TTCATGTGGA and TTCATTAGGA are within error of each other in switch fluorescence ratio: 1.017 ± 0.0047 for the first, 1.01 ± 0.029 for the second.

TTCATTGGTG and TTCCAAAAAA are within error of each other in switch fluorescence ratio: 1.09 ± 0.035 for the first, 1.1 ± 0.04 for the second.

TTCCAATTAG and TTCCAGAATT are within error of each other in switch fluorescence ratio: 0.968 ± 0.059 for the first, 0.993 ± 0.051 for the second.

First: TTCCAGGTGG
Second: TTCCAGTAAT
The switch fluorescence ratio of the first is higher: 1.42 ± 0.14 for the first, 1.01 ± 0.024 for the second.

TTCCATTCGA and TTCCATTGTA are within error of each other in switch fluorescence ratio: 0.992 ± 0.044 for the first, 1.02 ± 0.031 for the second.

First: TTCCCACGGG
Second: TTCCCACTAC
The switch fluorescence ratio of the first is lower: 1.64 ± 0.31 for the first, 2.63 ± 0.086 for the second.

Going from TTCCCACTAT to TTCCCAGATG, the switch fluorescence ratio rises from 1.023 ± 0.0078 to 1.81 ± 0.41.

First: TTCCCATGTT
Second: TTCCCGCGTA
The switch fluorescence ratio of the first is lower: 1 ± 0.012 for the first, 1.19 ± 0.13 for the second.

Going from TTCCCGCTGT to TTCCCGTCAG, the switch fluorescence ratio falls from 1.75 ± 0.023 to 1.022 ± 0.0017.

TTCCCTTTGG and TTCCCTTTTT are within error of each other in switch fluorescence ratio: 1.01 ± 0.041 for the first, 1.03 ± 0.019 for the second.

TTCCGACTCT and TTCCGACTTA are within error of each other in switch fluorescence ratio: 1.31 ± 0.014 for the first, 1.14 ± 0.19 for the second.

Going from TTCCGGCACT to TTCCGGGATC, the switch fluorescence ratio rises from 1.09 ± 0.029 to 1.91 ± 0.092.

TTCCGGGGCC and TTCCGGGGGA are within error of each other in switch fluorescence ratio: 0.9978 ± 0.0032 for the first, 1.08 ± 0.11 for the second.

TTCCGGGGTT and TTCCGGGTTT are within error of each other in switch fluorescence ratio: 1.03 ± 0.022 for the first, 1.2 ± 0.31 for the second.

First: TTCCGGTAAT
Second: TTCCGTATGA
The switch fluorescence ratio of the first is higher: 1.23 ± 0.033 for the first, 1.05 ± 0.043 for the second.

Compared with TTCCGTCACG, TTCCGTTGTG is lower in switch fluorescence ratio: 1.08 ± 0.043 for the first, 0.98 ± 0.049 for the second.

First: TTCCTAATTG
Second: TTCCTACAAG
The switch fluorescence ratio of the first is lower: 1.01 ± 0.012 for the first, 1.06 ± 0.014 for the second.

First: TTCCTAGTCT
Second: TTCCTTAGTC
The switch fluorescence ratio of the first is higher: 1.27 ± 0.19 for the first, 1.019 ± 0.0045 for the second.

TTCCTTGGGT and TTCCTTGGTA are within error of each other in switch fluorescence ratio: 1.01 ± 0.017 for the first, 1.04 ± 0.038 for the second.

First: TTCCTTTCAA
Second: TTCCTTTTTA
The switch fluorescence ratio of the first is higher: 1.228 ± 0.012 for the first, 1.02 ± 0.015 for the second.

TTCCTTTTTT and TTCGAACACG are within error of each other in switch fluorescence ratio: 1.03 ± 0.065 for the first, 0.994 ± 0.028 for the second.

Going from TTCGAACTCG to TTCGAAGCAC, the switch fluorescence ratio rises from 1.011 ± 0.0043 to 2.74 ± 1.7.

TTCGAAGTTG and TTCGAATGGT are within error of each other in switch fluorescence ratio: 0.999 ± 0.034 for the first, 0.9724 ± 0.0062 for the second.

TTCGAATTAG and TTCGACCGTG are within error of each other in switch fluorescence ratio: 2.28 ± 1.7 for the first, 0.997 ± 0.033 for the second.

TTCGAGACGG and TTCGAGAGTA are within error of each other in switch fluorescence ratio: 0.98 ± 0.025 for the first, 1.05 ± 0.1 for the second.

Going from TTCGAGAGTG to TTCGAGGAGA, the switch fluorescence ratio rises from 0.945 ± 0.054 to 1.01 ± 0.011.

TTCGAGGAGG and TTCGAGTATT are within error of each other in switch fluorescence ratio: 0.981 ± 0.017 for the first, 0.99 ± 0.019 for the second.
